Assay results from patent publication US20180244796A1 (CARSGEN THERAPEUTICS, published 2018).
Blank lines part the entries; values can stand above or below the binder they belong to. Ends that are not written are not given here. muFc = mouse Fc fragment of vector pCMV-V5-muFc

Legend:
[1] = target: T1, scFv-P1A6E-Fc (human, UniProt P01857-1 99-330 = IgG part, limits assumed); assay: ELISA, scFv-Fc against MSTL-R1B-mFc; x axis con.(nM) [left panel]
T1 construct: domain: Fc fragment; scFv cloned NheI/BamHI into pCMV-V5-Fc, expressed in HEK-293F, protein A purified; also called P1A6E single chain antibody; antibody-Fc fusion protein scFv-P1A6E-Fc
T1 sequence (P01857 other isoform, or with tags, fused parts or gaps limits assumed): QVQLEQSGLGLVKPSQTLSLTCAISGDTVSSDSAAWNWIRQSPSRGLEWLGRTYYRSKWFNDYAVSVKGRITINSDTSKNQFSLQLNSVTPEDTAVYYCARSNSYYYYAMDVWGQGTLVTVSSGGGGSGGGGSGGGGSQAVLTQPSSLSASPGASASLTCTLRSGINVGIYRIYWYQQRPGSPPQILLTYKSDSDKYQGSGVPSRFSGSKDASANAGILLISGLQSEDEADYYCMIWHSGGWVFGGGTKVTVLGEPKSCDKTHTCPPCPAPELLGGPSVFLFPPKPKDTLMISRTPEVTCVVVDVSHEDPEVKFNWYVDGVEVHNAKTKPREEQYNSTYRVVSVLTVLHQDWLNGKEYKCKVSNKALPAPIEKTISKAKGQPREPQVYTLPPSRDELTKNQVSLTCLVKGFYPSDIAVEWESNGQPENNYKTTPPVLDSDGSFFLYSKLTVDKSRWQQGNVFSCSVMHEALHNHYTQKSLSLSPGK

[2] = target: T2, scFv-P3F2-Fc (human, UniProt P01857-1 99-330 = IgG part, limits assumed); assay: ELISA, scFv-Fc against MSTL-R1B-mFc; x axis con.(nM) [right panel]
T2 construct: domain: Fc fragment; scFv cloned NheI/BamHI into pCMV-V5-Fc, expressed in HEK-293F, protein A purified; also called P3F2 single chain antibody; P3F2 single chain antibod
T2 sequence (P01857 other isoform, or with tags, fused parts or gaps limits assumed): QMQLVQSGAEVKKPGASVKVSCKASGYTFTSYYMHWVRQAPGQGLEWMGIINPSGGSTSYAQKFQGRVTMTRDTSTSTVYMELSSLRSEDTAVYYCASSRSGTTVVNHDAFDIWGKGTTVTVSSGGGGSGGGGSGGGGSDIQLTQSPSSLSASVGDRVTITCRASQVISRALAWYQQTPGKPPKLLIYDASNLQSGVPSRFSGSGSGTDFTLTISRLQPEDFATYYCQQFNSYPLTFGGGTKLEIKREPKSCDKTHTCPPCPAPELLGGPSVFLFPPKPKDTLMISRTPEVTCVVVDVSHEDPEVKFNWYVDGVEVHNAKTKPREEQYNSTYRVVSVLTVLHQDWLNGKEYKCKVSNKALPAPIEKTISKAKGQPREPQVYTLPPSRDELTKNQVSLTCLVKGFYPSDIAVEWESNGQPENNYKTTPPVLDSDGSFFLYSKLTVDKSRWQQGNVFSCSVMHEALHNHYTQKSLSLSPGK

[3] = target: T2, scFv-P3F2-Fc; assay: ELISA, scFv-Fc against MSLT-R1-mFc; x axis con.(nM), the sheet does not say whose concentration [right panel]
[4] = target: T1, scFv-P1A6E-Fc; assay: ELISA, scFv-Fc against MSLT-R1-mFc; x axis con.(nM), the sheet does not say whose concentration [left panel]
[5] = target: T1, scFv-P1A6E-Fc; assay: ELISA, scFv-Fc against MSLT-R2-mFc; x axis con.(nM) [left panel]
[6] = target: T2, scFv-P3F2-Fc; assay: ELISA, scFv-Fc against MSLT-R2-mFc; x axis con.(nM) [right panel]
[7] = target: T1, scFv-P1A6E-Fc; assay: ELISA on peptide-muFc fusion proteins
[8] = target: T2, scFv-P3F2-Fc; assay: ELISA on peptide-muFc fusion proteins
[9] = target: T1, scFv-P1A6E-Fc; assay: flow cytometry on PANC-1-MSLN cells, 20 ug/ml antibody, goat anti-human-FITC
Method: (§1) Each of antibodies scFv-P1A6E-Fc and scFv-P3F2-Fc was analyzed for binding ability to mesothelin at cell surface by Fluorescence Activated Cell Sorter (FACS) (Guava 8HT, supplied by Millipore).
(§2) 4) antibodies P1A6E and P3F2 to be tested were added into the two experimental groups, respectively, adding antibodies ss and C10 (purchased from Shanghai Rui Jin Biotechnology Co., Ltd.) were added into two positive control groups added as positive controls, and another control group is PBS blank control without antibody. The final concentration of each antibody was 20 μg/ml. 100 μl was added to each tube, and incubated in an ice bath for 45 minutes.

[10] = target: T2, scFv-P3F2-Fc; assay: as above
Method: as §1, §2

[11] = target: T1, scFv-P1A6E-Fc; assay: ELISA, scFv-Fc against MSLT-R3-mFc; x axis con.(nM) [left panel]
[12] = target: T2, scFv-P3F2-Fc; assay: ELISA, scFv-Fc against MSLT-R3-mFc; x axis con.(nM) [right panel]
[13] = target: T1, scFv-P1A6E-Fc; assay: ELISA, scFv-Fc against MSTL-R1A-mFc; x axis con.(nM), the sheet does not say whose concentration [left panel]
[14] = target: T2, scFv-P3F2-Fc; assay: ELISA, scFv-Fc against MSTL-R1A-mFc; x axis con.(nM), the sheet does not say whose concentration [right panel]
[15] = target: T2, scFv-P3F2-Fc; assay: ELISA, scFv-Fc against MSTL-R1AB-mFc; x axis con.(nM), the sheet does not say whose concentration [right panel]
[16] = target: T1, scFv-P1A6E-Fc; assay: ELISA, scFv-Fc against MSTL-R1AB-mFc; x axis con.(nM), the sheet does not say whose concentration [left panel]

B1: human mesothelin region R1B (328D-369I)-muFc fusion protein (Fc fusion)
chain: DAALLATQMDRVNAIPFTYEQLDVLKHKLDELYPQGYPESVI-muFc
notes: not shown: mouse Fc fragment of vector pCMV-V5-muFc
binding result [1]: no binding (tested: last point just under 100 nM) | binding result [2]: no binding (tested: last point just under 100 nM)

B2: human mesothelin region R1 (E296-T390)-muFc fusion protein (Fc fusion)
chain: EVEKTACPSGKKAREIDESLIFYKKWELEACVDAALLATQMDRVNAIPFTYEQLDVLKHKLDELYPQGYPESVIQHLGYLFLKMSPEDIRKWNVT
notes: also called region 1; not shown: mouse Fc fragment of vector pCMV-V5-muFc
binding result [3]: binds | binding result [4]: binds

B3: human mesothelin region R2 (S391-Q486)-muFc fusion protein (Fc fusion)
chain: SLETLKALLEVNKGHEMSPQVATLIDRFVKGRGQLDKDTLDTLTAFYPGYLCSLSPEELSSVPPSSIWAVRPQDLDTCDPRQLDVLYPKARLAFQ
notes: as for B1
binding result [5]: no binding (tested: last point between 100 and 1000 nM) | binding result [6]: no binding (tested: last point between 100 and 1000 nM)

B5: human mesothelin region R3 (N487-G581)-muFc fusion protein (Fc fusion)
chain: NMNGSEYFVKIQSFLGGAPTEDLKALSQQNVSMDLATFMKLRTDAVLPLTVAEVQKLLGPHVEGLKAEERHRPVRDWILRQRQDDLDTLGLGLQG
notes: as for B1
binding result [11]: no binding (tested: last point between 100 and 1000 nM) | binding result [12]: no binding (tested: last point between 100 and 1000 nM)

B7: human mesothelin region R1AB (296E-359L)-muFc fusion protein (Fc fusion)
chain: EVEKTACPSGKKAREIDESLIFYKKWELEACVDAALLATQMDRVNAIPFTYEQLDVLKHKLDEL
notes: as for B1
binding result [15]: binds | binding result [16]: binds

More lines, now with the values ahead:

binding result [7]: no binding | binding result [8]: no binding
Binder: YKKWELEACVDAALLATQMDRVNAIPFTYE (Fc fusion, not shown: mouse Fc fragment (muFc)) [mesothelin peptide R1J10-muFc fusion protein]

binding result [9]: binds | binding result [10]: binds
B4: human mesothelin on PANC-1-MSLN cells (other)
chain: APLADYKDDDDKEVEKTACPSGKKAREIDESLIFYKKWELEACVDAALLATQMDRVNAIPFTYEQLDVLKHKLDELYPQGYPESVIQHLGYLFLKMSPEDIRKWNVTSLETLKALLEVNKGHEMSPQVATLIDRFVKGRGQLDKDTLDTLTAFYPGYLCSLSPEELSSVPPSSIWAVRPQDLDTCDPRQLDVLYPKARLAFQNMNGSEYFVKIQSFLGGAPTEDLKALSQQNVSMDLATFMKLRTDAVLPLTVAEVQKLLGPHVEGLKAEERHRPVRDWILRQRQDDLDTLGLGLQGGIPNGYLVLDLSMQEALS
notes: also called mesothelin at cell surface

binding result [13]: binds | binding result [14]: binds
B6: human mesothelin region R1A (296E-337D)-muFc fusion protein (Fc fusion)
chain: EVEKTACPSGKKAREIDESLIFYKKWELEACVDAALLATQMD
notes: as for B1
